Measured values published in patent US20100285015A1 (University of Pennsylvania, published 2010).

Target: T1, mouse HMGB1 (produced in E. coli (Sigma)) (mouse, UniProt P63158 1-215, limits assumed)
T1 construct: Bought reagent; also called late cytokine (HMGB1); recombinant HMGB1
T1 sequence (looked up): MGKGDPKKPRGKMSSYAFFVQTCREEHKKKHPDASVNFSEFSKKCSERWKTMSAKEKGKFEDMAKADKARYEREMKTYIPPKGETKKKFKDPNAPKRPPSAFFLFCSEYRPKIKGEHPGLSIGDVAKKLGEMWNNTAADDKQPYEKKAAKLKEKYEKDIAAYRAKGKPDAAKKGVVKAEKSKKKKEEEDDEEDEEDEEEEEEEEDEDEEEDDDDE
Test: agglutination of Ter119-TM loaded mouse RBCs after HMGB1 and anti-HMGB1 antibody
Experimental: Mouse and human RBCs were washed in PBS/3% BSA buffer, resuspended in the same buffer to 10% hematocrit and incubated with Ter119-TM (final concentration […]) for 1 h. […] Then cells were washed 3 times with PBS/BSA buffer and equimolar amount of mouse HMGB1 (produced in E. coli (Sigma)) was added to the assay for 30 min at room temperature. Then RBC were washed with PBS/BSA and brought to the final hematocrit of 1% and the monoclonal Ab to mouse HMGB1 (Sigma, dilution as per manufacturer) was added to the assay placed into a V-shaped plate (total volume-100 μl).

B1: Ter119scFv-TM (thrombomodulin) fusion protein (other)
chain: RSPWPGVPTSQVKLQESGGGLVQPGGSLKLSCVASGFTFRDHWMNWVRQAPGKTMEWIGDIRPDGSDTNYAPSVRNRFTISRDNARSILYLQMSNMRSDYTATYYCVRDSPTRAGLMDAWGQGASVTVLTGGGGSGGGGSGGGGSDIQMIQSPSVLSASVGDRVTLNCKASQNINKYLNWYQQKLGEAPKVLIYNTNNLQTGIPSRFSGSGSGTDFTLTISSLQPEDFATYFCFQHYTWPTFGGGTKLELKRASSSSGSSSSGAAALSALAKLQPTGSQCVEHECFALFQGPATFLDASQACQRLQGHLMTVRSSVAADVISLLLSQSSMDLGPWIGLQLPQGCDDPVHLGPLRGFQWVTGDNHTSYSRWARPNDQTAPLCGPLCVTVSTATEAAPGEPAWEEKPCETETQGFLCEFYFTASCRPLTVNTRDPEAAHISSTYNTPFGVSGADFQTLPVGSSAAVEPLGLELVCRAPPGTSEGHWAWEATGAWNCSVENGGCEYLCNRSTNEPRCLCPRDMDLQADGRSCARPVVQSCNELCEHFCVSNAEVPGSYSCMCETGYQLAADGHRCEDVDDCKQGPNPCPQLCVNTKGGFECFCYDGYELVDGECVELLDPCFGSNCEFQCQPVSPTDYRCICAPGFAPKPDEPHKCEMFCNETSCPADCDPNSPTVCECPEGFILDEGSVCTDIDECSQGECFTSECRNFPGSYECICGPDTALAGQISKDCDPIPVREDTKEEEGSGEPPVSPTPGSPTGPPSARPVHSDYKDHDGDYKDHDIDYKDDDDK
notes: Expressed in Drosophila S2 cells from a pMT/BiP/V5-HisA plasmid; Some assays used it directly from S2 cell medium; also called Ter119-TM
- binding result: binds
